The values that follow come from publication PMC4161306, “Regulation of Arabidopsis Flowering by the Histone Mark Readers MRG1/2 via Interaction with CONSTANS to Modulate FT Expression” (PLoS Genetics, 2014).

Where no end group is shown, it is not given here. Me3 = trimethyl-lysine; Me2 = dimethyl-lysine

The target of assay [1] is T1, MRG2 chromodomain (residues 41-123) (Arabidopsis thaliana, UniProt Q4V3E2 41-123).
T1 construct: Arabidopsis thaliana MRG2 chromodomain, residues 41-123; Construct of the ITC; source: cloned into pET28-SMT3, purified, tag removed
T1 sequence (looked up): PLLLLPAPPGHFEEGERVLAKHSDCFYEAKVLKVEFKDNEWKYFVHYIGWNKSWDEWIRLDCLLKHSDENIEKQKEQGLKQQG
Description: ITC; 25 C, MicroCal iTC200; 50 mM Tris pH 8.0, 100 mM NaCl; 0.2-0.4 mM protein in the cell, 2-4 mM peptide injected in 2 ul aliquots (20 injections); one-site model. The following applies: both partners purified. For orientation: ITC needs no label: the signal is the heat of the interaction.

The target in assay [2] is T2, GST-fused CONSTANS (CO) (Arabidopsis thaliana, UniProt Q39057 1-373).
T2 construct: Arabidopsis transcription factor CONSTANS (CO); CO cDNA amplified with primers CO-1/CO-2; also called GST-CO; source: E. coli, pGEX-4T-1, purified
T2 sequence (looked up): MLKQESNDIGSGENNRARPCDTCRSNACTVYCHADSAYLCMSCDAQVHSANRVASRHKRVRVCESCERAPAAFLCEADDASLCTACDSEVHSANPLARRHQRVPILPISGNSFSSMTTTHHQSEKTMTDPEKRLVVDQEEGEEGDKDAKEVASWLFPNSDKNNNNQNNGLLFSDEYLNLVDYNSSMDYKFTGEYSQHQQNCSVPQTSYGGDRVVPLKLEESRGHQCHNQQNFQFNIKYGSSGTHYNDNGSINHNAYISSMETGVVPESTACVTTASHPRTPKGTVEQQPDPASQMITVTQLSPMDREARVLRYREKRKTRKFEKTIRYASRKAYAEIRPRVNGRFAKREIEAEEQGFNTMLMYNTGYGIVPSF
Description: pull-down; GST-fused CO (or GST alone) with His-tagged MRG2, MRG2C or MRG2N, purified from E. coli; protocol of ref. 51. The following applies: both partners purified.

As a reminder, the Kd is the constant that tells how readily two partners part at equilibrium. A higher Kd goes with a looser complex. Consider KAARK(Me3)SAPA [H3K27me3 peptide (residues 23-31)], for which the dissociation constant Kd in assay [1] was 2500 µM.

B1: His-tagged MRG2 (natural protein, Arabidopsis thaliana, UniProt Q4V3E2 1-327, looked up)
chain: MGSPNAAAETDLTTDDFIGDTRRDSGSDTETNTDCDGEDLPLLLLPAPPGHFEEGERVLAKHSDCFYEAKVLKVEFKDNEWKYFVHYIGWNKSWDEWIRLDCLLKHSDENIEKQKEQGLKQQGIKSAMAWKVSKMKPRSPNVARGRKRKQDSVDTEKNVLPSDNLLSFNIPPALRKQLLDDFEFVTQMQKLVQLPRSPNVDGILKKYIDSQMKKHGRVTDSLEEILKGLRCYFDKALPVMLLYNNERKQYEESVSGGVSPSTVYGAEHLLRLFVKLPELLVHVNMAEETLKELQDNFVDILRFLRKNQSVLFVSTYKAVEEMEKKEG
notes: Arabidopsis MRG2 cDNA amplified with primers MRG2-1/MRG2-10; MRG2-1 is the forward primer of MRG2N (cDNA from nucleotide 1) and MRG2-10 the reverse primer of MRG2C (cDNA to nucleotide 984); also called MRG2 tagged with multiple His residues; His-MRG2; source: E. coli, pET-30a, purified (His tag)
For the molecule B1, the binding result in assay [2] is “binds”.

B2: His-tagged MRG2C (MRG domain of MRG2) (domain or fragment, Arabidopsis thaliana, UniProt Q4V3E2 148-327, looked up)
chain: RKQDSVDTEKNVLPSDNLLSFNIPPALRKQLLDDFEFVTQMQKLVQLPRSPNVDGILKKYIDSQMKKHGRVTDSLEEILKGLRCYFDKALPVMLLYNNERKQYEESVSGGVSPSTVYGAEHLLRLFVKLPELLVHVNMAEETLKELQDNFVDILRFLRKNQSVLFVSTYKAVEEMEKKEG
notes: Arabidopsis MRG2; MRG2C is cDNA 442-984, which are nucleotides, i.e. from residue 148 to the C-terminus; holds the MRG domain; source: E. coli, pET-30a, purified (His tag)
For B2, the binding result in assay [2] is on record as “binds”.
For the molecule ARTK(Me2)QTARK [H3K4me2 peptide (residues 1-9)], binding in assay [1] was put at a Kd of 2400 µM.
KQTARK(Me3)STGG [H3K9me3 peptide (residues 4-13)]: in assay [1], the Kd worked out at 1200 µM.
